Source: publication PMC12057666 (Science Advances, 2025)

B1: Es4.431 IgG antibody (antibody, V domains shown)
VH: EVQLLESGGGLVQPGGSLRLSCTASGFTFDTHVMSWVRQGPGKGLEWVSSISAASGTYYAGSVKGRFTISRDNSKNTLFLHMNSLRVEDTGVYYCANVVHRCTTNTCFRGADNWGQGTLVTVSS
VL: PSSLSASVGDRVTITCRASQSVDTYLNWYQQKPGETPKLLIYAASTLQSGVPSRFSGSGSGTTFTLTISSLQPEDFATYYCQQSYTTLMYTFGQGTKLEIK
notes: source: Freestyle 293-F, transient cotransfection, purified (Protein G Sepharose 4 Fast Flow)
B2: Es1.327 IgG antibody (antibody, V domains shown)
VH: QVQLVQSGGEVKKPGASVRVSCQTSGYSFTHYSITWVRQAPGQGLEWMGWITTYNGKTSYAQKFQDRVTMTADTSSRTAYVELRSLRSDDTAVYYCVRVWTGYGTNRGDYWGQGTLVTVSS
VL: PSSLYASVGDRVTITCRASQSINTFLNWYQQKPGNAPKLLIHAASTLESGVPSRFSGSGSGTDFTLTISSLQPEDFATYYCQQSDNNFALTFGGGTKVEIR
notes: as for B1
B3: Es5.127 IgG antibody (antibody, V domains shown)
VH: EVQLVQSGAEVKKPGESLKISCKGSGYRSGYSFSSYWIGWVRQRPGKGLEWMGIIQPGDSDTTYSPSFQGQVTISADKSINTAYLQWSSLKASDTAIYYCARVRGSLKVPAAVPFDPWGQGTLVTVSS
VL: QSVLTQPPSVSAAPGQKVTISCSGSSSNIGNNYVSWYQQFPGIAPKLLIYDNNKRPSGIPDRFSGSKSGTSATLGITGLQTGDEADYYCGTWDSSLSDVVFGGGTKLTVL
notes: as for B1

What was measured:
Conditions in all cases: both partners purified
[1] = target: T1, HEV-P, wild-type HEV-CA P domain protein, ORF2(455-601), genotype 3, 2712 strain (hepatitis E virus genotype 3, strain …, UniProt Q9YLQ9); assay: ELISA; plates coated overnight with 125 ng per well of purified protein; serial dilutions of monoclonal antibodies in PBS, 2 hours; HRP anti-human IgG
T1 construct: source: Freestyle 293-F, transient transfection (PEI), purified from culture supernatant (Ni Sepharose Excel)
T1 sequence (Q9YLQ9 455-601): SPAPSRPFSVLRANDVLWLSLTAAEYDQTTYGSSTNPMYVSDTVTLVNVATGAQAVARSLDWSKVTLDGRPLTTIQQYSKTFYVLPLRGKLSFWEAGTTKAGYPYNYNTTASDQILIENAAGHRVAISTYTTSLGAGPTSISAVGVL

[2] = target: T2, HEV-C1 capsid protein (Rocahepevirus, rat hepatitis E virus) (Rocahepevirus (rat hepatitis E virus …, UniProt E0XL23, strain)); assay: SPR; Biacore 2000; purified IgG (10 μg/ml) captured on Protein G sensor chip; capsid proteins injected at 5 or 10 to 0.312 nM; HBS-EP (10 mM Hepes pH 7.2, 150 mM NaCl, 3 mM EDTA, 0.005% Tween 20); 22°C; Langmuir model, global analysis; apparent affinity
T2 construct: capsid protein (ORF2) of Rocahepevirus HEV-C1 (rat hepatitis E virus); Igk leader at the N terminus of the construct; also called HEV-C1 protein; Rocahepevirus CA; source: Freestyle 293-F, transient transfection (PEI), purified from culture supernatant (Ni Sepharose Excel)

[3] = target: T3, genotype 1d HEV-CA protein (1d Morocco) (Hepatitis E virus genotype 1d, Morocco, …, UniProt Q9W7W9, strain); assay: as above
T3 construct: hepatitis E virus capsid protein (ORF2), genotype 1d, strain Morocco; the 3-2712 HEV-CA construct of the same list is ORF2 126-601; Igk leader at the N terminus of the construct; also called genotype 1 HEV-CA; source: Freestyle 293-F, transient transfection (PEI), purified from culture supernatant (Ni Sepharose Excel)

[4] = target: T4, genotype 3a HEV-CA protein (3a Meng) (Hepatitis E virus genotype 3a, swine …, UniProt Q6J8F7, strain); assay: as above
T4 construct: also called genotype 3 HEV-CA; source: Freestyle 293-F, transient transfection (PEI), purified from culture supernatant (Ni Sepharose Excel)

Row | Binder | binding result [1] | Kd [2] [nM] | binding result [3] | Kd [4] [nM]
1 | B1 | binds |  |  | 
2 | B2 | binds |  |  | 
3 | B3 |  | 1.6 | binds | 0.41
